Measurements: the supplement of paper PMC9112550, “Optimization of the antimicrobial peptide Bac7 by deep mutational scanning” (BMC Biology, 2022)

tested on: Escherichia coli TOP10; experiment: shrunken log2 fold change of peptide-encoding DNA abundance (4.5 h post-induction vs induction); higher = less antimicrobial activity (less host growth inhibition); conditions: time post-induction: 4.5 h; library: site-saturation at positions 5, 18, 19, 20
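Also: peptides expressed intracellularly from a pBAD plasmid library in pooled LB shake-flask culture, induced with 0.3% L-arabinose, DNA abundance read by NGS, three biological replicates, DESeq2 with apeglm shrinkage.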

| Sequence | shrunken log2 fold change |
| --- | --- |
| RRIRLRPPRLPRPRPRPMTCPRP | -0.252 |
| RRIRIRPPRLPRPRPRPKAPPRP | -0.0151 |
| RRIRARPPRLPRPRPRPHHKPRP | -0.347 |
| RRIRTRPPRLPRPRPRPKSNPRP | -0.448 |
| RRIRMRPPRLPRPRPRPGMGPRP | 0.902 |
| RRIRERPPRLPRPRPRPNVEPRP | 0.0609 |
| RRIRGRPPRLPRPRPRPWSAPRP | 0.232 |
| RRIRCRPPRLPRPRPRPNKWPRP | -0.00442 |
| RRIRKRPPRLPRPRPRPKCNPRP | -0.0341 |
| RRIRVRPPRLPRPRPRPAAKPRP | 0.348 |
| RRIRSRPPRLPRPRPRPHQAPRP | -0.161 |
| RRIRNRPPRLPRPRPRPNDDPRP | 0.0813 |
| RRIRCRPPRLPRPRPRPFKTPRP | -0.478 |
| RRIRPRPPRLPRPRPRPYCDPRP | -0.907 |
| RRIRWRPPRLPRPRPRPSAAPRP | 0.921 |
| RRIRKRPPRLPRPRPRPMYMPRP | -0.103 |
| RRIRYRPPRLPRPRPRPKHWPRP | 0.266 |
| RRIRFRPPRLPRPRPRPKAKPRP | -0.016 |
| RRIRRRPPRLPRPRPRPCGVPRP | 0.0719 |
| RRIRMRPPRLPRPRPRPHEMPRP | 0.0891 |
| RRIRGRPPRLPRPRPRPCLYPRP | 0.0217 |
| RRIRGRPPRLPRPRPRPFQVPRP | 0.0301 |

| Sequence | shrunken log2 fold change |
| --- | --- |
| RRIRDRPPRLPRPRPRPEYWPRP | 0.0559 |
| RRIRCRPPRLPRPRPRPWWMPRP | -0.0465 |
| RRIRCRPPRLPRPRPRPGMKPRP | 0.062 |
| RRIRTRPPRLPRPRPRPFFCPRP | -0.0401 |
| RRIRCRPPRLPRPRPRPIYPPRP | -0.386 |
| RRIRERPPRLPRPRPRPSHIPRP | -0.25 |
| RRIRLRPPRLPRPRPRPTHQPRP | 0.592 |
| RRIRRRPPRLPRPRPRPQTLPRP | 0.101 |
| RRIRFRPPRLPRPRPRPNWQPRP | 0.0965 |
| RRIRYRPPRLPRPRPRPCPEPRP | -0.421 |
| RRIRHRPPRLPRPRPRPAVSPRP | -0.378 |
| RRIRERPPRLPRPRPRPGPDPRP | -0.118 |
| RRIRLRPPRLPRPRPRPHTEPRP | -0.167 |
| RRIRGRPPRLPRPRPRPRFCPRP | 0.569 |
| RRIRWRPPRLPRPRPRPHYSPRP | -0.279 |
| RRIRKRPPRLPRPRPRPNDRPRP | -0.0503 |
| RRIRRRPPRLPRPRPRPRWYPRP | 0.092 |
| RRIRMRPPRLPRPRPRPLHSPRP | 0.0835 |
| RRIRNRPPRLPRPRPRPYNDPRP | -0.581 |
| RRIRCRPPRLPRPRPRPMPDPRP | -0.0379 |
| RRIRCRPPRLPRPRPRPHASPRP | -0.224 |
| RRIRSRPPRLPRPRPRPADVPRP | 0.438 |

| Sequence | shrunken log2 fold change |
| --- | --- |
| RRIRPRPPRLPRPRPRPAVPPRP | 0.1 |
| RRIRRRPPRLPRPRPRPKWFPRP | -0.0159 |
| RRIRFRPPRLPRPRPRPVEMPRP | -0.327 |
| RRIRIRPPRLPRPRPRPKPCPRP | -0.0965 |
| RRIRMRPPRLPRPRPRPGTYPRP | -0.163 |
| RRIRWRPPRLPRPRPRPIWQPRP | -0.0567 |
| RRIRARPPRLPRPRPRPENRPRP | 0.0495 |
| RRIRQRPPRLPRPRPRPDDIPRP | -0.0246 |
| RRIRIRPPRLPRPRPRPNMMPRP | -0.298 |
| RRIRIRPPRLPRPRPRPNCAPRP | -0.187 |
| RRIRTRPPRLPRPRPRPQMQPRP | -0.0728 |
| RRIRRRPPRLPRPRPRPACVPRP | 0.451 |
| RRIRVRPPRLPRPRPRPFLDPRP | -0.187 |
| RRIRPRPPRLPRPRPRPGMMPRP | -0.111 |
| RRIRRRPPRLPRPRPRPASGPRP | 0.302 |
| RRIRMRPPRLPRPRPRPYYTPRP | 0.0968 |
| RRIRSRPPRLPRPRPRPMQSPRP | -0.00143 |
| RRIRARPPRLPRPRPRPCMWPRP | 0.117 |
| RRIRLRPPRLPRPRPRPTMHPRP | 0.0766 |
| RRIRLRPPRLPRPRPRPGMRPRP | 0.787 |
| RRIRQRPPRLPRPRPRPHDDPRP | 0.043 |
| RRIRWRPPRLPRPRPRPTAIPRP | 0.806 |

| Sequence | shrunken log2 fold change |
| --- | --- |
| RRIRGRPPRLPRPRPRPSKIPRP | 0.149 |
| RRIRVRPPRLPRPRPRPTHEPRP | 0.256 |
| RRIRFRPPRLPRPRPRPVRSPRP | 0.234 |
| RRIRQRPPRLPRPRPRPQLFPRP | 0.0846 |
| RRIRKRPPRLPRPRPRPCKRPRP | -0.194 |
| RRIRERPPRLPRPRPRPCSGPRP | -0.434 |
| RRIRYRPPRLPRPRPRPLWAPRP | -0.25 |
| RRIRDRPPRLPRPRPRPDHEPRP | -0.148 |
| RRIRRRPPRLPRPRPRPGRWPRP | 0.591 |
| RRIRSRPPRLPRPRPRPWTRPRP | 0.0569 |
| RRIRRRPPRLPRPRPRPKKLPRP | 0.166 |
| RRIRERPPRLPRPRPRPVCMPRP | -0.164 |
| RRIRQRPPRLPRPRPRPTIAPRP | 0.0737 |
| RRIRIRPPRLPRPRPRPGGGPRP | 0.659 |
| RRIRYRPPRLPRPRPRPYWKPRP | -0.0135 |
| RRIRTRPPRLPRPRPRPDTNPRP | -0.558 |
| RRIRARPPRLPRPRPRPPWSPRP | 0.585 |
| RRIRSRPPRLPRPRPRPDCMPRP | -0.165 |
| RRIRHRPPRLPRPRPRPPQHPRP | -0.177 |
| RRIRFRPPRLPRPRPRPYSQPRP | -0.411 |
| RRIRHRPPRLPRPRPRPEGAPRP | 0.686 |
| RRIRGRPPRLPRPRPRPICYPRP | 0.543 |

| Sequence | shrunken log2 fold change |
| --- | --- |
| RRIRDRPPRLPRPRPRPNDTPRP | 0.0133 |
| RRIRSRPPRLPRPRPRPHAPPRP | 0.27 |
| RRIRWRPPRLPRPRPRPSGLPRP | 0.155 |
| RRIRHRPPRLPRPRPRPDIAPRP | 0.00497 |
| RRIRMRPPRLPRPRPRPNMYPRP | 0.0412 |
| RRIRTRPPRLPRPRPRPIGGPRP | -0.000462 |
| RRIRKRPPRLPRPRPRPPIYPRP | 0.0758 |
| RRIRWRPPRLPRPRPRPRQPPRP | 0.743 |
| RRIRLRPPRLPRPRPRPACEPRP | 0.317 |
| RRIRNRPPRLPRPRPRPCWTPRP | -0.0133 |
| RRIRARPPRLPRPRPRPRGQPRP | 0.666 |
| RRIRQRPPRLPRPRPRPIPLPRP | -0.182 |
| RRIRRRPPRLPRPRPRPKTMPRP | 0.348 |
| RRIRCRPPRLPRPRPRPVWMPRP | -0.179 |
| RRIRFRPPRLPRPRPRPCTPPRP | -0.158 |
| RRIRMRPPRLPRPRPRPPYFPRP | 0.104 |
| RRIRKRPPRLPRPRPRPFSWPRP | 0.0937 |
| RRIRDRPPRLPRPRPRPAAFPRP | 0.549 |
| RRIRYRPPRLPRPRPRPADQPRP | -0.0819 |
| RRIRHRPPRLPRPRPRPYNMPRP | -0.186 |
| RRIRFRPPRLPRPRPRPVEVPRP | -1.6 |
